# From doi:10.1101/2022.11.10.516045
# Assays:
# [1] = target: α2 chain of mini-procollagen I (human); assay: co-purification by the tag of one chain, SDS-PAGE of the BMP-1 cleavage products
# [2] = target: mini-procollagen III (human); assay: SDS-PAGE in non-reducing against reducing
# [3] = target: human PCPE-1 (procollagen C-proteinase enhancer protein-1), no tag (human) (UniProt Q15113); assay: SPR
# [4] = target: homotrimeric mini-procollagen II (human); assay: SDS-PAGE in non-reducing against reducing
# Chain of UniProt Q15113 (Q15113 26-449): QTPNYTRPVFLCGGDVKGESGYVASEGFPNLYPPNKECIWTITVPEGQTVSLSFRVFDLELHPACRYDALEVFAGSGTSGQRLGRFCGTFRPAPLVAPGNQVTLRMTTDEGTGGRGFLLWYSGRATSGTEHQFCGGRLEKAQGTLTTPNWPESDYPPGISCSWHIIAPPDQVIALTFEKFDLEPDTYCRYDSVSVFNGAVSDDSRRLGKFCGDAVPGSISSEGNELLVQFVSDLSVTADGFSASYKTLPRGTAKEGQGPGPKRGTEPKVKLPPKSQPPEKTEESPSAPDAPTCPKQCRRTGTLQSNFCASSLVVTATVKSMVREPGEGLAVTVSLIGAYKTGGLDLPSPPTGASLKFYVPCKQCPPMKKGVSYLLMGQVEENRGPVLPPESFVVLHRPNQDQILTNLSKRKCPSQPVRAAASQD
Substance,stoichiometry N (α1 chains for one α2 chain) [1],stoichiometry N [2],KD1 (heterogeneous ligand model) [3],KD2 (heterogeneous ligand model) [3],stoichiometry N [4]
α1 chain of mini-procollagen I (domain or fragment),2,,,,
mini-procollagen III (domain or fragment),,3,< 15 nM,< 15 nM,
heterotrimeric mini-procollagen I (complex),,,< 15 nM,< 15 nM,
homotrimeric mini-procollagen II (domain or fragment),,,< 15 nM,< 15 nM,3
